Holding throughout (test): initial velocities of diol formation, Michaelis-Menten fit
What all share (type): biochemical, Rhodococcus erythropolis
Common to all, as to details: buffer and temperature of kinetics not given (activity assays: 50 mM HEPES pH 8, 30 °C)

Substrate in data set [1]: C1CC2OC2C1
The source says:
(§1) initial velocities of diol formation, Michaelis-Menten fit on LEH-P (thermostable limonene epoxide hydrolase)

Substrate in data set [2]: c1ccc([C@H]2O[C@H]2c2ccccc2)cc1
Text: as §1

Substrate in data set [3]: C[C@@H]1O[C@@H]1C
Text: as §1

[4] abbreviates: variant 43A, single measurement, margin from average coefficient of variation.

B1: LEH-P (thermostable limonene epoxide hydrolase) (Rhodococcus erythropolis; A19K/E45K/N92K/S15P/T2A/T76K/T85V/Y96F) (protein)
chain: MASKIEQPRWASKDPAAGKASTPDEKIVLEFMDALTSNDAAKLIKYFAEDTMYQNMPLPPAYGRDAVEQTLAGLFKVMSIDAVEVFHIGSSKGLVFTERVDVLRALPTGKSYNLSILGVFQLTEGKITGWRDYFDLREFEEAVDLPLRG
notes: N-terminal hexa-His tag; expressed in E. coli; dimeric
What is called Km is the concentration of substrate that gives half-maximal velocity. By kcat is commonly meant the maximal rate divided by the concentration of active sites. As usually defined, the kcat/Km is the second-order rate constant that governs catalysis at low substrate concentration. Regarding B1, the Km came out at 4200 ± 200 µM in data set [1], 370 ± 20 µM in data set [2] and 18000 ± 1000 µM in data set [3]. For the same protein, the kcat in data set [1] turned out to be 0.035 ± 0.004 s⁻¹; in data set [2], 0.147 ± 0.012 s⁻¹; in data set [3], 0.056 ± 0.01 s⁻¹. Besides, the kcat/Km in data set [1] worked out at 7.9 M⁻¹ s⁻¹; in data set [2] it was 406 M⁻¹ s⁻¹; in data set [3], 3.1 M⁻¹ s⁻¹.

B2: LEH-P (thermostable limonene epoxide hydrolase) (Rhodococcus erythropolis; A19K/E45K/F139L/I80W/L103V/L35G/M32L/N92K/S15P/T2A/T76K/T85V/Y96F) (protein)
chain: MASKIEQPRWASKDPAAGKASTPDEKIVLEFLDAGTSNDAAKLIKYFAEDTMYQNMPLPPAYGRDAVEQTLAGLFKVMSWDAVEVFHIGSSKGLVFTERVDVVRALPTGKSYNLSILGVFQLTEGKITGWRDYFDLRELEEAVDLPLRG
notes: as for B1
In the case of B2, in data set [2] (variant 60A), the Km was found to be 60 ± 10 µM, the kcat turned out to be 0.052 ± 0.006 s⁻¹ and the kcat/Km came to 890 M⁻¹ s⁻¹.

B3: LEH-P (thermostable limonene epoxide hydrolase) (Rhodococcus erythropolis; A19K/E45K/F139L/I116F/L103I/L114M/L35M/M32L/N92K/S15P/T2A/T76K/T85V/Y96F) (protein)
chain: MASKIEQPRWASKDPAAGKASTPDEKIVLEFLDAMTSNDAAKLIKYFAEDTMYQNMPLPPAYGRDAVEQTLAGLFKVMSIDAVEVFHIGSSKGLVFTERVDVIRALPTGKSYNMSFLGVFQLTEGKITGWRDYFDLRELEEAVDLPLRG
notes: as for B1
For B3, in data set [2] (variant 41B), the Km was 190 ± 20 µM, the kcat turned out to be 0.002 ± 0.001 s⁻¹ and the kcat/Km was found to be 10.5 M⁻¹ s⁻¹.

B4: LEH-P (thermostable limonene epoxide hydrolase) (Rhodococcus erythropolis; A19K/E45K/F134Y/F139W/L103V/L74I/N92K/S15P/T2A/T76K/T85V/Y96F) (protein)
chain: MASKIEQPRWASKDPAAGKASTPDEKIVLEFMDALTSNDAAKLIKYFAEDTMYQNMPLPPAYGRDAVEQTLAGIFKVMSIDAVEVFHIGSSKGLVFTERVDVVRALPTGKSYNLSILGVFQLTEGKITGWRDYYDLREWEEAVDLPLRG
notes: as for B1
As to B4, in data set [1] (setting [4]), the Km is 35000 ± 4000 µM, the kcat worked out at 0.017 ± 0.005 s⁻¹ and the kcat/Km was found to be 0.48 M⁻¹ s⁻¹.

B5: LEH-P (thermostable limonene epoxide hydrolase) (Rhodococcus erythropolis; A19K/E45K/I116F/L103I/L114M/L35M/M32L/M78I/N92K/S15P/T2A/T76K/T85V/Y96F) (protein)
chain: MASKIEQPRWASKDPAAGKASTPDEKIVLEFLDAMTSNDAAKLIKYFAEDTMYQNMPLPPAYGRDAVEQTLAGLFKVISIDAVEVFHIGSSKGLVFTERVDVIRALPTGKSYNMSFLGVFQLTEGKITGWRDYFDLREFEEAVDLPLRG
notes: as for B1
B5: in data set [2] (variant 52A), the Km turned out to be 160 ± 30 µM, the kcat was found to be 0.003 ± 0.001 s⁻¹ and the kcat/Km amounted to 19 M⁻¹ s⁻¹.

B6: LEH-P (thermostable limonene epoxide hydrolase) (Rhodococcus erythropolis; A19K/E45K/F139L/I116V/I80F/L103I/M32A/M78I/N92K/S15P/T2A/T76K/T85V/Y96F) (protein)
chain: MASKIEQPRWASKDPAAGKASTPDEKIVLEFADALTSNDAAKLIKYFAEDTMYQNMPLPPAYGRDAVEQTLAGLFKVISFDAVEVFHIGSSKGLVFTERVDVIRALPTGKSYNLSVLGVFQLTEGKITGWRDYFDLRELEEAVDLPLRG
notes: as for B1
For the protein B6, in data set [1] (variant 24A), the Km is 3000 ± 200 µM, the catalytic constant (kcat) was found to be 0.005 ± 0.001 s⁻¹ and the kcat/Km was 1.9 M⁻¹ s⁻¹.
